We go through three molecules from US20220289819A1 (GREEN CROSS, published 2022).

First the molecules themselves.
B2: hCEACAM1-Fc (Fc fusion)
chain: QLTTESMPFNVAEGKEVLLLVHNLPQQLFGYSWYKGERVDGNRQIVGYAIGTQQATPGPANSGRETIYPNASLLIQNVTQNDTGFYTLQVIKSDLVNEEATGQFHVYPELPKPSISSNNSNPVEDKDAVAFTCEPETQDTTYLWWINNQSLPVSPRLQLSNGNRTLTLLSVTRNDTGPYECEIQNPVSANRSDPVTLNVTYGPDTPTISPSDTYYRPGANLSLSCYAASNPPAQYSWLINGTFQQSTQELFIPNITVNNSGSYTCHANNSVTGCNRTTVKTIIVTELSPVVAKPQIKASKTTVTGDKDSVNLTCSTNDTGISIRWFFKNQSLPSSERMKLSQGNTTLSINPVKREDAGTYWCEVFNPISKNQSDPIMLNVNYNALPQENGLSPG
modifications: biotin-labeled when used as the soluble partner (sites not given)
notes: also called biotin-labeled hCEACAM1-Fc; not shown: pr

For data set [1], the target named is T1, hCEACAM6-Fc (human), P40199.
T1 chain: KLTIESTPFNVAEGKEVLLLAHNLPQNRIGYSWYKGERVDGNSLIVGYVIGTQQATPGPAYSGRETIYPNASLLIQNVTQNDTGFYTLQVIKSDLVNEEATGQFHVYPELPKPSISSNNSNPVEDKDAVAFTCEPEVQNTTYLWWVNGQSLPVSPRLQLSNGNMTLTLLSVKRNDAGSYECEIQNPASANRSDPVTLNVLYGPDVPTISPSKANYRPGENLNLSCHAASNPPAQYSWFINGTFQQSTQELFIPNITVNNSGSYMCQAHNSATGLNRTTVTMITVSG
In words: ELISA, hCEACAM6-Fc coated, biotin-labeled hCEACAM1-Fc titrated, streptavidin-peroxidase detection. Conditions: remark: other sources report otherwise.

The target is the same in data set [2]. Put plainly: ELISA, coated hCEACAM6-Fc (2.5 µg/mL), biotin-labeled hCEACAM1-Fc titrated from 150 µg/mL. To be noted: remark: other sources report otherwise.
Data set [3] concerns the molecule itself. Put plainly: ELISA, coated hCEACAM1-Fc (2.5 µg/mL), biotin-labeled hCEACAM1-Fc titrated from 150 µg/mL. The protocol: (§1) The hCEACAM1-Fc prepared in Example 5.1 was diluted with PBS to a concentration of 2.5 μg/mL, and then 100 μL each of the resultant was added into a NUNC immuno module (NUNC, 468667) plate and coated at 4° C. overnight. On the next day, after washing with PBS (to which 0.05% Tween 20 was added), 300 μL of PBS (to which 1% BSA was added) was added to each well of the coated plate, and blocking was performed by reacting at room temperature for 2 hours. In addition, after washing 3 times with PBS (to which 0.05% Tween 20 was added), biotin-labeled hCEACAM1-Fc was serially diluted 3-fold starting from a concentration of 150 μg/mL, and added into 11 wells in the plate coated with hCEACAM1-Fc. The last well was added only with PBS to which 1% BSA was added. The wells were reacted at 37° C. for 1 hour. After 1 hour, each well was washed 3 times by adding 300 μL of PBS (to which 0.05% Tween 20 was added), and then streptavidin-peroxidase polymer (Sigma, S2438-250UG) was diluted at a 1:5,000 ratio in PBS (to which 1% BSA was added), 100 μL each of the resultant was added into each well, and reacted at 37° C. for 40 minutes. […] To terminate the reaction, an equal amount of sulfuric acid (Sigma-Aldrich, 339741) was added and the OD value was measured at 450 nm wavelength using an ELISA reader.

Data set [4] deals with the molecule itself. In words: ELISA, hCEACAM1-Fc coated, biotin-labeled hCEACAM1-Fc titrated, streptavidin-peroxidase detection. The procedure: as §1
In data set [5] the target is B2. Put plainly: competition ELISA, hCEACAM1-Fc coated, antibody pre-mixed with hCCM1-Fc-biotin 500 ng/mL; blocked interaction hCEACAM1-Fc/hCEACAM1-Fc. The procedure: (§2) In another 96-well-plate, anti-CEACAM1 antibody was serially diluted 2-fold starting from a concentration of 60 μg/ml, and added into 11 wells, and the last well was added only with PBS to which 1% BSA was added, and then biotin-labeled hCEACAM1-Fc was added in the same amount as the anti-CEACAM1 antibody (which was diluted to 0.5 μg/mL), and reacted at room temperature for 1 hour. After 1 hour, 100 μL each of a mixture of the anti-CEACAM1 antibody and the biotin-labeled hCEACAM1-Fc were added to the blocked plate and reacted again at room temperature for 1 hour.
(§3) After 1 hour, each well was washed 3 times by adding 300 μL of PBS (to which 0.05% Tween 20 was added) thereto, and then streptavidin-peroxidase polymer (Sigma, S2438-250UG) was diluted at a 1:5,000 ratio in PBS (to which 1% BSA was added), 100 μL each of the resultant was added to each well, and reacted at 37° C. for 40 minutes. Each well where the reaction was completed was washed 3 times by adding 300 μL of PBS (to which 0.05% Tween 20 was added), and then 100 μL of TMB microwell peroxidase substrate (KPL, 50-76-03) was added thereto and reacted for 5 minutes. To terminate the reaction, an equal amount of sulfuric acid (Sigma-Aldrich, 339741) was added and the OD value was measured at 450 nm wavelength using an ELISA reader.

The target in data set [6] is T2, hCEACAM1 (R&D Systems, Cat. No. 2244-CM) (human, UniProt P13688 35-428).
T2 construct: Anti-His (His1K) biosensors were used, which implies a His tag
T2 sequence: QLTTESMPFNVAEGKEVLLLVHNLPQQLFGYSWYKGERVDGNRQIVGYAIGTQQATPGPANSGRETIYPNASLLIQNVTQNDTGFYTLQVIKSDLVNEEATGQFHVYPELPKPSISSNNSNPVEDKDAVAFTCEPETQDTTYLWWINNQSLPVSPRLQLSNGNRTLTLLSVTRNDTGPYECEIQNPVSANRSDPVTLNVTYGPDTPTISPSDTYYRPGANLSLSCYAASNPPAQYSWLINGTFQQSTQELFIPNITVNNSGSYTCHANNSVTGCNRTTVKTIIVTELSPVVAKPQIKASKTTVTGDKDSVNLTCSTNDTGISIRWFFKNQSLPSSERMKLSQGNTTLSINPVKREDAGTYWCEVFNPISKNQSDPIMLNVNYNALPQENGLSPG
Put plainly: not stated at this place; presumably the BLI of Experimental Example 4; summary statement in the description, no assay named.

The target of data set [7] is B2. Put plainly: competition ELISA: antibody titrated from 60 µg/mL, mixed with biotin-labeled hCEACAM1-Fc, added to coated hCEACAM6-Fc. The procedure: (§4) In another 96-well-plate, the anti-CEACAM1 antibody was serially diluted 2-fold starting from a concentration of 60 μg/mL and added into 11 wells, and the last well was added with only PBS (to which 1% BSA was added), and then biotin-labeled hCEACAM 1-Fc was added in the same amount as the diluted anti-CEACAM1 antibody to a concentration of 0.5 μg/mL, and reacted at room temperature for 1 hour. After 1 hour, 100 μL each of a mixture of the anti-CEACAM1 antibody and the biotin-labeled hCEACAM1-Fc were added to the blocked plate and reacted again at room temperature for 1 hour.
(§5) After 1 hour, each well was washed 3 times by adding 300 μL of PBS (to which 0.05% Tween 20 was added) thereto, and then streptavidin-peroxidase polymer (Sigma, S2438-250UG) was diluted at a 1:5,000 ratio in PBS (to which 1% BSA was added), and 100 μL each of the resultant was added to each well, and reacted at 37° C. for 40 minutes. Each well where the reaction was completed was washed 3 by adding 300 μL of PBS (to which 0.05% Tween 20 was added) thereto, and then 100 μL each of TMB microwell peroxidase substrate (KPL, 50-76-03) was added thereto, and reacted for 5 minutes. To terminate the reaction, an equal amount of sulfuric acid (Sigma-Aldrich, 339741) was added and the OD value was measured at 450 nm wavelength using an ELISA reader.

For data set [8], the target named is T2, hCEACAM1 (R&D Systems, Cat. No. 2244-CM). Put plainly: BLI (Octet QKe), hCEACAM1 on anti-His biosensor, antibody 6.25-400 nM in solution. The protocol: Quantitative binding strength of the anti-CEACAM1 antibody to CEACAM1 was measured using the Octet QKe (Pall ForteBio). The anti-CEACAM1 antibody was subjected to a ½ concentration dilution 6 times at a concentration of 400 nM, and the antibodies at concentrations of 400 nM, 200 nM, 100 nM, 50 nM, 25 nM, 12.5 nM, and 6.25 nM were added into a Greiner 96-well-plate (Greiner, Cat. No. 655209) in an amount of 200 μL each in a row, and the last well was added at a concentration of 0 nM. In another row, hCEACAM1 (R&D Systems, Cat. No. 2244-CM) was diluted to a concentration of […], and was added in an amount of 200 μL each in a row.
Washing buffer, neutralization buffer, and baseline buffer were diluted 10 times with Reagent/Kinetics buffer (10×) (Fortebio, Cat. No. 18-1092) and was added in an amount of 200 μL in each row, and regeneration buffer was added in an amount of 200 μL in a row. A separate Greiner 96-well-plate was prepared, and Reagent/Kinetics buffer (IX) was added in an amount of 200 μL to as many wells as the number of biosensors to be used, and the Biosensors/Anti-His(His1K) (Fortebio, Cat. No. 18)-5120) Cassette was mounted.

Data set [9] addresses B2. In words: competition ELISA, hCEACAM6-Fc coated, antibody pre-mixed with biotin-labeled hCEACAM1-Fc; blocked interaction hCEACAM1-Fc/hCEACAM6-Fc. The protocol:
as §4, §5

Data set [10] concerns the target B2. In words: competition ELISA: antibody titrated from 60 µg/mL, mixed with biotin-labeled hCEACAM1-Fc, added to coated hCEACAM1-Fc. The protocol: as §2, §3

B1: hCEACAM1-Fc, P13688 35-428 (Fc fusion, not shown: a dimerising Fc or GST)
chain: QLTTESMPFNVAEGKEVLLLVHNLPQQLFGYSWYKGERVDGNRQIVGYAIGTQQATPGPANSGRETIYPNASLLIQNVTQNDTGFYTLQVIKSDLVNEEATGQFHVYPELPKPSISSNNSNPVEDKDAVAFTCEPETQDTTYLWWINNQSLPVSPRLQLSNGNRTLTLLSVTRNDTGPYECEIQNPVSANRSDPVTLNVTYGPDTPTISPSDTYYRPGANLSLSCYAASNPPAQYSWLINGTFQQSTQELFIPNITVNNSGSYTCHANNSVTGCNRTTVKTIIVTELSPVVAKPQIKASKTTVTGDKDSVNLTCSTNDTGISIRWFFKNQSLPSSERMKLSQGNTTLSINPVKREDAGTYWCEVFNPISKNQSDPIMLNVNYNALPQENGLSPG
modifications: here or on the partner: biotin-labeled when used as the soluble partner (sites not given)
On to B1, for which, in data set [1], the EC50 (read off the curve) stood at 0.3 µg/mL. This molecule showed an EC50 in [2] of 0.305 µg/mL.
B2 had an EC50 in data set [3] of 0.286 µg/mL. Further, the “EC50 (read off the curve)” value in data set [4] is roughly 0.3 µg/mL.

B3: anti-CEACAM1 antibody (antibody, V domains shown)
VH: EVQLLESGGGLVQPGGSLRLSCAASGFTFSNYAMSWVRQAPGKGLEWVSVISHGGGSIYYADSVKGRLTISRDNSKNTLYLQMNSLRAEDTAVYYCARDPTKGYAPTFDYWGQGTLVTVSS
VL: QSVLTQPPSASGTPGQRVTISCSGSSSNIGNNYVSWYQQLPGTAPKLLIYADSRRPSGVPDRFSGSKSGTSASLAISGLRSEDEADYYCGAWDLSLNGYVFGGGTKLTVLG
notes: also called anti-CEACAM1 antibody according to an embodiment
As to B3, the “IC50 (read off the curve)” value with hCEACAM1-Fc [5] was roughly 0.8 µg/mL; with hCEACAM1-Fc [9] it was roughly 1 µg/mL. Besides, the values for the Kd in data set [6] and in data set [8] were 3.36 nM and 3.39 nM, respectively. Besides, the IC50 stood at 0.795 µg/mL with hCEACAM1-Fc [7] and 1.05 µg/mL with hCEACAM1-Fc [10]. The same molecule gave a koff in [8] of 0.000567 s⁻¹. In [8], the kon was 163000 M⁻¹ s⁻¹.
